Source: article doi:10.1101/739813 (bioRxiv, 2019)
Where no end group is shown, it is not given here.

Key:
[1] = target: pRab8a(GTP): Rab8a (Q67L, residues 1-181) phosphorylated at T72, GTP-bound (UniProt P61006); experiment: ITC
crystal structure = target: the molecule itself; experiment: crystal structure

UniProt P61006, sequence (P61006 1-181 Q67L): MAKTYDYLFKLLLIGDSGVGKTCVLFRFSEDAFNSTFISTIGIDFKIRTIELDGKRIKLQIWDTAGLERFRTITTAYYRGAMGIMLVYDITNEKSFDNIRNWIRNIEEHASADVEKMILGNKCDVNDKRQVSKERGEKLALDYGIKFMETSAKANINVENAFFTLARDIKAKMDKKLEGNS

B1: His6-RILPL2, phospho-Rab binding domain of RILPL2 (residues 129-165) (peptide, UniProt Q969X0 129-165, looked up)
peptide: His6-NRPRFTLQELRDVLQERNKLKSQLLVVQEELQCYKSG
For B1, the Kd [1] was 3.3 µM and the binding result (crystal structure) was “binds”.
